Experimental data: US20240368668A1, “SUBSTRATES AND BIOMARKERS OF ADAMTS7” (The Broad Institute, Inc., priority 2021, published 2024)

Molecular target: T1, mouse ADAMTS7 (Mus musculus, UniProt Q68SA9)
T1 construct: Full-length mouse Adamts7 1-1857 (Uniprot Q68SA9, WT or E373Q catalytic mutant); expressed in transfected cells; host or cells: Human Coronary Artery Smooth Muscle Cells (HCA-SMC, Lonza), adenovirus 50 MOI
T1 sequence (Q68SA9 221-1657): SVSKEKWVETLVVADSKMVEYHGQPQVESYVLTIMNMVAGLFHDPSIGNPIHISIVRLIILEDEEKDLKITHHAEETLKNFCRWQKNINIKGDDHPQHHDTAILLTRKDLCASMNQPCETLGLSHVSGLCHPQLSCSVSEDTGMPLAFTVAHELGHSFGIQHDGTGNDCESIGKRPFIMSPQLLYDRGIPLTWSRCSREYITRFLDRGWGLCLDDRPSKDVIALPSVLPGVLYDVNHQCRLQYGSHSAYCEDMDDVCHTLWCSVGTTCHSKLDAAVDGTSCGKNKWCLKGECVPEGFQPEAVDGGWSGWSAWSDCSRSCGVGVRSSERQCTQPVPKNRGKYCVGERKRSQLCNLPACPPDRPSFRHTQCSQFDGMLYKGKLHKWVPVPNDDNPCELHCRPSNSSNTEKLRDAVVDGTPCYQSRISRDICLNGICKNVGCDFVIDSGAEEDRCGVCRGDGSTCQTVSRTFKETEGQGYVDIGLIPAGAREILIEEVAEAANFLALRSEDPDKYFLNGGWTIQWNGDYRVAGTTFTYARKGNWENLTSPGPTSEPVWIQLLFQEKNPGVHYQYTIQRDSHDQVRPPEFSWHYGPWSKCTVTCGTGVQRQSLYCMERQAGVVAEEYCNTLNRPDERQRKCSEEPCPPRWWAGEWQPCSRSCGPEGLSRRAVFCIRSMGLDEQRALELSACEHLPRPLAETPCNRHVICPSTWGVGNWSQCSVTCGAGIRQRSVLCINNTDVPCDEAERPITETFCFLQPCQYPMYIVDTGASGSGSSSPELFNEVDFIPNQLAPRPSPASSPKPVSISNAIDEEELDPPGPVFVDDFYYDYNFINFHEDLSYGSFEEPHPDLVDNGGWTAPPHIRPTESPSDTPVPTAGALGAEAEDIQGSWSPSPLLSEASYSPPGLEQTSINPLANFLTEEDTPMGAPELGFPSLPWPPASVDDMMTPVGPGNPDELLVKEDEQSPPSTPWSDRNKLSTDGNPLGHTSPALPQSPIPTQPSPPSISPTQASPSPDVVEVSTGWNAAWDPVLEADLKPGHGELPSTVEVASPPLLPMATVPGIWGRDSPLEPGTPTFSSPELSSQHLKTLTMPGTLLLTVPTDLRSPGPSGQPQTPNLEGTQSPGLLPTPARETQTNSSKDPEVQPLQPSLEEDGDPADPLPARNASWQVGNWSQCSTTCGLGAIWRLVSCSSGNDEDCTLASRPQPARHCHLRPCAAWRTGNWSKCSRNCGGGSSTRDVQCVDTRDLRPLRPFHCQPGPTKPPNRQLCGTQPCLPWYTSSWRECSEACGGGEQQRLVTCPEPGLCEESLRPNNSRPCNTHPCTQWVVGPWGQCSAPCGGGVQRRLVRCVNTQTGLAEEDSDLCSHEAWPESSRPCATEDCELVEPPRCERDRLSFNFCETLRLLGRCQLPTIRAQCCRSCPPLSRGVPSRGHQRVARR
Assay: TMT10 TAILS N-terminomics, SMC1 experiment (Ad-mADAMTS7 WT vs EQ vs Luc, technical replicates, trypsin digest)
Assay type: cell-based
Details: TAILS neo-N-terminal peptide abundance; log fold change, Ad-mADAMTS7 WT over Luc
Description: ADAMTS7 Expression, Cell Culture and Preparation of the Secreted Proteins—Full-length mouse Adamts7 1-1857 (Uniprot Q68SA9, WT or E373Q catalytic mutant) with a carboxyl terminal 3xFLAG tag was used to generate custom adenoviruses as previously described. Adeno-CMV-Luciferase (Ad-Luc) from Vector Biolabs was used as a negative control. Human Coronary Artery Smooth Muscle Cells (HCA-SMC) were obtained from Lonza and expanded in Lonza SmGM-2 media in 15 cm tissue culture plates. Twenty-four hours before media collection, near confluent plates were transduced with 50 MOI adenovirus and switched to Lonza Basal SM media with volumes of 20 ml per 15 cm plate. Expression of the Flag tagged ADAMTS7 was confirmed from the media using western blot and detected using the anti-Flag M2-HRP antibody (Sigma, A8592). Collected media was processed by adding protease inhibitors (1 mM EDTA and 1 mM PMSF) and clarified by 500 g×5 min spin at 4 C to pellet cell debris. Cell media supernatants were then passed through a 0.22 um filter and kept chilled. Processed media was then concentrated 50-100× using 3 kDa Centricon Plus-70 filter unit, spun at 3,500 g×60 min at 4 C. Approximately 10% of the processed, concentrated media was set aside for total secretome proteolytic analysis. The remaining 90% of the processed, concentrated media was buffer exchanged into 50 mM HEPES pH 8.0, 150 mM NaCl (2×50 ml) using the 3 kDa Centricon Plus-70 filter unit and concentrated to >2 mg/ml to serve as input for the TAILS experiment. Secretome and TAILS input samples were stored at −80° C.
For the first experiment, referred to as SMC1, 120 ml of media from 6×15 cm dishes was pooled from each condition (Luc, WT, EQ) and processed to produce three separate inputs for the TAILS experiment. Luc, WT and EQ inputs from the SMC1 experiment were each divided into triplicate 400 ug samples to generate technical replicate TAILS data. For the second experiment, referred to as SMC2, media was processed separately in triplicate for each condition (Luc1, Luc2, Luc3, WT1, WT2, WT3, EQ1, EQ2, EQ3) using 60 ml of media from 3×15 cm dishes for each process replicate. Inputs from the SMC2 experiment used process replicates of 300 ug each to generate TAILS data. The third experiment used input from cultured Human umbilical vein endothelial cells (HUVEC) from Lifeline Cell Technology grown in VascuLife Media and transduced in Lifeline Basal EC (+bFGF2 10 ng/ml). The HUVEC experiment used the same strategy as the SMC2 experiment, with 40 ml of media from 2×15 cm dishes for each process replicate and used 200 ug each to generate TAILS data. Inputs for process replicate experiments were restricted to the lowest concentration from the 9 parallel samples for SMC2 or HUVEC.
TMT10 isotopic labeling and negative selection of non-labeled peptides-Sample preparation was performed based on the TAILS protocol from the Overall lab with some modifications. From a single experiment, nine parallel protein samples in 50 mM HEPES pH 8.0, 150 mM NaCl were separately denatured with guanidinium chloride (Sigma, G4505) to reach a final concentration of 2.5M guanidinium chloride and 250 mM HEPES and incubated at 65° C. for 15 min. Reduction was achieved through addition of tris(2-carboxylethyl) phosphine (TCEP) at a final concentration of […] and incubated at 65° C. for 45 min. Alkylation reaction was performed with addition of iodoacetamide (IAA, Sigma, A3221) to a final concentration of 10 mM IAA for 15 min at room temperature in the dark. Following denaturation, reduction and alkylation steps, ten percent of each of the nine parallel protein samples was removed and combined to serve as a pooled reference. Isobaric tags were added to free amine groups using the TMT10plex Isobaric Mass Tagging Kit (ThermoFisher, 90113) with TMT channels randomly assigned to the nine samples and TMT 131 assigned to the pooled reference. […]

logFC.mWT.over.Lux | Substance
2.87 | HTRA1_33 (LAAGCPDR; listed as Homo sapiens)
0.63 | HSPG2_4133 (DGFKGDLCEHEENPCQLR; listed as Homo sapiens)
0.85 | FN1_1143 (LTPGVEYVYTIQVLR; listed as Homo sapiens)
1.60 | LOX_123 (HWFQAGYSTSR; listed as Homo sapiens)
1.93 | HSPG2_2333 (LAYPAGSTQPIR; listed as Homo sapiens)
1.34 | LTBP2_533 (SGEPPRPLPPAAPR; listed as Homo sapiens)
3.87 | FN1_40 (QSPVAVSQSKPGCYDNGKHYQINQQWER; listed as Homo sapiens)
3.46 | FBLN2_260 (LGPPAPVQAKAR; listed as Homo sapiens)
1.88 | ACTB_105 (LTEAPLNPKANR; listed as Homo sapiens)
0.79 | HSPG2_1937 (SSAGQQVAR; listed as Homo sapiens)
3.16 | HSPG2_2688 (VADSGEYVCR; listed as Homo sapiens)
3.62 | LTBP1_546 (HVYPVAAKTQLGR; listed as Homo sapiens)
4.89 | FBN1_53 (LKGPNVCGSR; listed as Homo sapiens)
0.76 | GALNT2_31 (LAGGAGGGAGR; listed as Homo sapiens)
0.78 | LOXL2_318 (AYKPEQPLVR; listed as Homo sapiens)
3.19 | IFI30_43 (YKTGNLYLR; listed as Homo sapiens)

logFC.mWT.over.Lux | Substance
3.99 | IGFBP7_101 (AAGGPGVSGVCVCKSR; listed as Homo sapiens)
3.70 | LOX_124 (WFQAGYSTSR; listed as Homo sapiens)
2.27 | APLP2_579 (ISETPVDVR; listed as Homo sapiens)
1.01 | EHBP1L1_298 (TAPTPAPR; listed as Homo sapiens)
2.61 | LTBP1_494 (SVQIHQVSR; listed as Homo sapiens)
3.23 | AEBP1_37 (FLEGFLSELEPEPR; listed as Homo sapiens)
0.60 | HSPG2_3542 (IAHVELADAGQYR; listed as Homo sapiens)
1.14 | HLA−C_52 (VDDTQFVR; listed as Homo sapiens)
0.88 | HSPG2_4004 (SAEPLALGR; listed as Homo sapiens)
2.83 | LTBP1_540 (HQQVIPHVYPVAAKTQLGR; listed as Homo sapiens)
2.46 | IGFBP3_31 (SAGLGPVVR; listed as Homo sapiens)
1.11 | FN1_2143 (FEEHGFR; listed as Homo sapiens)
2.41 | FN1_2217 (FQDTSEYIISCHPVGTDEEPLQFR; listed as Homo sapiens)
2.33 | IGFBP3_200 (FSSESKR; listed as Homo sapiens)
1.61 | LOX_126 (QAGYSTSR; listed as Homo sapiens)
1.09 | ACTB_21 (FAGDDAPR; listed as Homo sapiens)
